In the data set the test system is glycerol kinase (glpK). The experiment in a line: Biochemical measurements of mutant glycerol kinase (partially purified protein): reaction rate and inhibition by FBP. Also on record: species or system Escherichia coli. The settings on record: partially purified protein from cells expressing the enzyme. The source says: All clones had mutations in the gene for glycerol kinase (glpK), which catalyzes the first step in glycerol catabolism. This protein is subject to inhibition by fructose-1,6-bisphosphate (FBP) and phosphorylated enzyme IIA^Glc. […] Since all glycerol-adapted populations have mutations in glpK, rapid growth on glycerol can be partially attributed to altered kinetic and regulatory properties of glycerol kinase. Evidently the rate of glycerol phosphorylation catalyzed by GlpK is rate-limiting to the growth of WT E. coli MG 1655. The glycerol catabolic pathway generates the glycolytic intermediate dihydroxyacetone phosphate, which can be converted to methylglyoxal, a toxic metabolite when present at high concentrations. It is noteworthy that no mutations were detected in any genes relating to methylglyoxal metabolism.

Vmax data for one molecule are collected here from US20100092954A1, “Method for Determining the Genetic Basis for Physiological Changes in Organisms” (priority 2006, published 2010).

B1: WT: wild-type E. coli MG1655 glycerol kinase (GlpK) (protein, UniProt P0A6F3 2-502, looked up)
Glycerol kinase: TEKKYIVALDQGTTSSRAVVMDHDANIISVSQREFEQIYPKPGWVEHDPMEIWATQSSTLVEVLAKADISSDQIAAIGITNQRETTIVWEKETGKPIYNAIVWQCRRTAEICEHLKRDGLEDYIRSNTGLVIDPYFSGTKVKWILDHVEGSRERARRGELLFGTVDTWLIWKMTQGRVHVTDYTNASRTMLFNIHTLDWDDKMLEVLDIPREMLPEVRRSSEVYGQTNIGGKGGTRIPISGIAGDQQAALFGQLCVKEGMAKNTYGTGCFMLMNTGEKAVKSENGLLTTIACGPTGEVNYALEGAVFMAGASIQWLRDEMKLINDAYDSEYFATKVQNTNGVYVVPAFTGLGAPYWDPYARGAIFGLTRGVNANHIIRATLESIAYQTRDVLEAMQADSGIRLHALRVDGGAVANNFLMQFQSDILGTRVERPEVREVTALGAAYLAGLAVGFWQNLDELQEKAVIEREFRPGIETTERNYRYAGWKKAVKRAMAWEEHDE
As for B1, the Vmax worked out at 15.8 μmol glycerol/min/mg.
